First the molecules themselves.
B1: biotinylated JES6–1 antibody mutant S34A (VL) (antibody, V domains shown)
VH: EIQLQQSGPELRRPGSSVKLSCKASGYNITDYLIHWVRHRPEHGLEWIGWIDPEDGETRYAQKFQSKATLTADTSSNAAYMQLSSLTPEDTATYFCARSLDSTYIYPFAYWGQGTLVTVSS
VL: DIVMTQSPFSLAVSEGEMVTINCKSSQSLLASGNQKNYLAWYQQKPGQSPKLLIYYASTGQSGVPDRFIGSGSGTDFTLTISDVQAEDLADYYCLQHYISPPTFGAGTKLELK
B2: biotinylated JES6–1 antibody mutant Y41A (VL) (antibody, V domains shown)
VH: EIQLQQSGPELRRPGSSVKLSCKASGYNITDYLIHWVRHRPEHGLEWIGWIDPEDGETRYAQKFQSKATLTADTSSNAAYMQLSSLTPEDTATYFCARSLDSTYIYPFAYWGQGTLVTVSS
VL: DIVMTQSPFSLAVSEGEMVTINCKSSQSLLSSGNQKNALAWYQQKPGQSPKLLIYYASTGQSGVPDRFIGSGSGTDFTLTISDVQAEDLADYYCLQHYISPPTFGAGTKLELK
B3: biotinylated JES6–1 antibody mutant H100A (VL) (antibody, V domains shown)
VH: EIQLQQSGPELRRPGSSVKLSCKASGYNITDYLIHWVRHRPEHGLEWIGWIDPEDGETRYAQKFQSKATLTADTSSNAAYMQLSSLTPEDTATYFCARSLDSTYIYPFAYWGQGTLVTVSS
VL: DIVMTQSPFSLAVSEGEMVTINCKSSQSLLSSGNQKNYLAWYQQKPGQSPKLLIYYASTGQSGVPDRFIGSGSGTDFTLTISDVQAEDLADYYCLQAYISPPTFGAGTKLELK
B4: biotinylated JES6–1 antibody mutant Y101A (VL) (antibody, V domains shown)
VH: EIQLQQSGPELRRPGSSVKLSCKASGYNITDYLIHWVRHRPEHGLEWIGWIDPEDGETRYAQKFQSKATLTADTSSNAAYMQLSSLTPEDTATYFCARSLDSTYIYPFAYWGQGTLVTVSS
VL: DIVMTQSPFSLAVSEGEMVTINCKSSQSLLSSGNQKNYLAWYQQKPGQSPKLLIYYASTGQSGVPDRFIGSGSGTDFTLTISDVQAEDLADYYCLQHAISPPTFGAGTKLELK
B5: biotinylated JES6–1 antibody mutant D58A (VH) (antibody, V domains shown)
VH: EIQLQQSGPELRRPGSSVKLSCKASGYNITDYLIHWVRHRPEHGLEWIGWIDPEAGETRYAQKFQSKATLTADTSSNAAYMQLSSLTPEDTATYFCARSLDSTYIYPFAYWGQGTLVTVSS
VL: DIVMTQSPFSLAVSEGEMVTINCKSSQSLLSSGNQKNYLAWYQQKPGQSPKLLIYYASTGQSGVPDRFIGSGSGTDFTLTISDVQAEDLADYYCLQHYISPPTFGAGTKLELK
B6: biotinylated JES6–1 antibody mutant D55A (VH) (antibody, V domains shown)
VH: EIQLQQSGPELRRPGSSVKLSCKASGYNITDYLIHWVRHRPEHGLEWIGWIAPEDGETRYAQKFQSKATLTADTSSNAAYMQLSSLTPEDTATYFCARSLDSTYIYPFAYWGQGTLVTVSS
VL: DIVMTQSPFSLAVSEGEMVTINCKSSQSLLSSGNQKNYLAWYQQKPGQSPKLLIYYASTGQSGVPDRFIGSGSGTDFTLTISDVQAEDLADYYCLQHYISPPTFGAGTKLELK
B7: biotinylated JES6–1 antibody mutant R62A (VH) (antibody, V domains shown)
VH: EIQLQQSGPELRRPGSSVKLSCKASGYNITDYLIHWVRHRPEHGLEWIGWIDPEDGETAYAQKFQSKATLTADTSSNAAYMQLSSLTPEDTATYFCARSLDSTYIYPFAYWGQGTLVTVSS
VL: DIVMTQSPFSLAVSEGEMVTINCKSSQSLLSSGNQKNYLAWYQQKPGQSPKLLIYYASTGQSGVPDRFIGSGSGTDFTLTISDVQAEDLADYYCLQHYISPPTFGAGTKLELK
B8: biotinylated JES6–1 antibody mutant E60A (VH) (antibody, V domains shown)
VH: EIQLQQSGPELRRPGSSVKLSCKASGYNITDYLIHWVRHRPEHGLEWIGWIDPEDGATRYAQKFQSKATLTADTSSNAAYMQLSSLTPEDTATYFCARSLDSTYIYPFAYWGQGTLVTVSS
VL: DIVMTQSPFSLAVSEGEMVTINCKSSQSLLSSGNQKNYLAWYQQKPGQSPKLLIYYASTGQSGVPDRFIGSGSGTDFTLTISDVQAEDLADYYCLQHYISPPTFGAGTKLELK

Sequence of mouse IL-2 (mIL-2, amino acids 1–149), hexahistidine-tagged (P04351 21-169): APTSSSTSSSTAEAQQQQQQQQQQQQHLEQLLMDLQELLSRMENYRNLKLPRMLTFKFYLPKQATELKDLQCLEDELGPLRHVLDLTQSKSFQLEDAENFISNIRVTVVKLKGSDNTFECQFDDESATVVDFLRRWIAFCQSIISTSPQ

One experiment concerns the target mouse IL-2 (mIL-2, amino acids 1–149), hexahistidine-tagged (Mus musculus, UniProt P04351). Description: SPR.
Conditions: not given
In general, Kd refers to the constant that tells how readily two partners part at equilibrium. B1 showed a Kd of 6.5 nM.
With B2, the dissociation constant Kd was determined as 6.4 nM.
The molecule B3 registered a Kd of 62 nM.
Regarding B4, the Kd amounted to 12 nM.
As for B5, binding was put at a Kd of 200 nM.
Same read-out and setting: the figure for B6 is 500 nM.
Same read-out and setting: the figure for B7 is 4.3 nM; for B8 it is 56 nM.

The target in the next experiment is IL-2 receptor βγ (Homo sapiens) (UniProt P14784).
Sequence of IL-2 receptor βγ (Homo sapiens) (P14784 27-240, chain 1 of 2): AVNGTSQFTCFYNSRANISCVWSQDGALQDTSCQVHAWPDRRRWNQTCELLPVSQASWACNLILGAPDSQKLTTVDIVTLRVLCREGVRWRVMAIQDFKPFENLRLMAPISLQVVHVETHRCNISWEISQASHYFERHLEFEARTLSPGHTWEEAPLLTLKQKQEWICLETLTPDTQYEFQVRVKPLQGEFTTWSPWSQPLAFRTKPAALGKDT
Sequence of IL-2 receptor βγ (Homo sapiens) (P31785 23-262, chain 2 of 2, further chain): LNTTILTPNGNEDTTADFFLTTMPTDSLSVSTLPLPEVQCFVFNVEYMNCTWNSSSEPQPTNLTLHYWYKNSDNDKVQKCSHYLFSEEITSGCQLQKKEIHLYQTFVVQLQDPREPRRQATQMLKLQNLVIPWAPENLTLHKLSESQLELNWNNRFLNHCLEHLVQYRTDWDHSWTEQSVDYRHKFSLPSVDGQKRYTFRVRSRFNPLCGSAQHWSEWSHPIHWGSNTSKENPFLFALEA
Assay: not given
The conditions noted are these: cited from earlier work.
IL-2 (from UniProt P60568): the dissociation constant (Kd) was 1 nM.

Another experiment has as its target biotinylated mouse IL-2Rα (mIL-2Rα ectodomain with C-terminal biotin acceptor peptide) (mouse). Description: SPR.
Conditions: not given
Regarding “JES6–1 immunocytokine (IL-2 tethered to the N-terminus of the JES6–1 antibody light chain) (from UniProt P04351 21-169)”, the dissociation constant Kd was 290 nM.
On the same count and under the same terms, the figure for “JES6–1 immunocytokine mutant D55A (VH) (from UniProt P04351 21-169)” is 230 nM; for “JES6–1 immunocytokine mutant D58A (VH) (from UniProt P04351 21-169)” it is 260 nM; for “JES6–1 immunocytokine mutant E60A (VH) (from UniProt P04351 21-169)” it is 210 nM.
For the molecule “JES6–1 immunocytokine mutant H100A (VL) (from UniProt P04351 21-169)”, the dissociation constant Kd was 240 nM.
“JES6–1 immunocytokine mutant R62A (VH) (from UniProt P04351 21-169)” registered a Kd of 190 nM.
As to “JES6–1 immunocytokine mutant S34A (VL) (from UniProt P04351 21-169)”, the Kd turned out to be 170 nM.
The same measure, in the same setting: in the case of “JES6–1 immunocytokine mutant Y41A (VL) (from UniProt P04351 21-169)” it was 130 nM; in that of “JES6–1 immunocytokine mutant Y101A (VL) (from UniProt P04351 21-169)”, 140 nM.

The next experiment has the same target. The experiment in a line: SPR.
Conditions: not given
This is another data set of the same source.
Molecule “JES6–1 immunocytokine (IL-2 tethered to the N-terminus of the JES6–1 antibody light chain) (from UniProt P04351 21-169)” displayed a Kd of 220 nM.
The same measure, in the same setting: in the case of “JES6–1 immunocytokine double mutant S34A+Y41A (VL) (from UniProt P04351 21-169)” it was 210 nM; in that of “JES6–1 immunocytokine double mutant S34A+Y101A (VL) (from UniProt P04351 21-169)”, 82 nM; in that of “JES6–1 immunocytokine triple mutant S34A+Y41A+Y101A (VL) (from UniProt P04351 21-169)”, 130 nM.
The same measure, in the same setting: in the case of “JY3 immunocytokine (JES6–1 immunocytokine double mutant Y41A+Y101A, VL) (from UniProt P04351 21-169)” it was 82 nM.
